Numbering of substitutions follows the chain as printed.
T1: extracellular domain (ECD) of recombinant human Sortilin with a C-terminal HIS tag (ECD-huSortilin-HIS) (human, UniProt Q99523 78-755)
T1 construct: Bought (R&D Systems); also called human sortilin-ECD; not shown: C-terminal HIS tag
T1 sequence: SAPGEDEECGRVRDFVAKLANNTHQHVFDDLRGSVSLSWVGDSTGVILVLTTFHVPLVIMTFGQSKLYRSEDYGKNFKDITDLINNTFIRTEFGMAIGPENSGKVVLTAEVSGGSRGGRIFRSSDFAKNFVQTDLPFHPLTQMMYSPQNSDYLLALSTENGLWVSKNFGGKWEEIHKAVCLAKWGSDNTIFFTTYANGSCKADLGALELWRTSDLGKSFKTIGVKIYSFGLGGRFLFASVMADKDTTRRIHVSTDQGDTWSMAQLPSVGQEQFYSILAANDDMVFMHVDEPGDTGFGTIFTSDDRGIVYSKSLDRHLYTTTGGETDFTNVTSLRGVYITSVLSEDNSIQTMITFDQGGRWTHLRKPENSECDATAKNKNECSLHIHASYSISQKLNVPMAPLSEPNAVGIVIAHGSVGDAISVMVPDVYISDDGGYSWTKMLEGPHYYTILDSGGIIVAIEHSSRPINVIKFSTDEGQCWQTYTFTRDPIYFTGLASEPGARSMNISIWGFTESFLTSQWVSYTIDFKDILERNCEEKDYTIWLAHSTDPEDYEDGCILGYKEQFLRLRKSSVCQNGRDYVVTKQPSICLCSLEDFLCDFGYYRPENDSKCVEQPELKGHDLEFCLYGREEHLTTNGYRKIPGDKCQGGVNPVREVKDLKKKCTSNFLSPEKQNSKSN

B1: humanized 5E20 hu5E20VHv3/hu5E20VLv3 (antibody, V domains shown)
VH: EVQLVESGGGLVQPGGSLRLSCAASGFTFSTYGMSWVRQAPGKRLEWVAIISSGGSYTYYSDTVKGRFTISRDNSKNSLYLQMNSLRAEDTAVYYCSRSSSHWYFDVWGQGTLVTVSS
VL: DIQMTQSPSSVSASVGDRVTITCHASQGISSNIGWLQQKPGKAFKGLIYHGTNLKDGVPSRFSGSGSGADFTLTISSLQPEDFATYFCVQYAQFPYTFGQGTKVEKR
notes: Human IgG; also called 5E20H3L3
B2: humanized 5E20 hu5E20VHv5/hu5E20VLv4 (antibody, V domains shown)
VH: B1 VH with G42D, R87K
VL: B1 VL with T85D
notes: Human IgG; also called 5E20H5L4
B3: humanized 5E20 hu5E20VHv4/hu5E20VLv4 (antibody, V domains shown)
VH: B1 VH with G42D
VL: B1 VL with T85D
notes: Human IgG; also called 5E20H4L4
B4: humanized 5E20 hu5E20VHv2/hu5E20VLv1 (antibody, V domains shown)
VH: B1 VH with R44G
VL: B1 VL with V11L, Q100G, K106I
notes: Human IgG; also called 5E20H2L1
B5: humanized 5E20 hu5E20VHv4/hu5E20VLv3 (antibody, V domains shown)
VH: B1 VH with G42D
VL: B1 VL
notes: Human IgG; also called 5E20H4L3
B6: humanized 5E20 hu5E20VHv2/hu5E20VLv3 (antibody, V domains shown)
VH: B1 VH with R44G
VL: B1 VL
notes: Human IgG; also called 5E20H2L3
B7: humanized 5E20 hu5E20VHv3/hu5E20VLv4 (antibody, V domains shown)
VH: B1 VH
VL: B1 VL with T85D
notes: Human IgG; also called 5E20H3L4
B8: humanized 5E20 hu5E20VHv7/hu5E20VLv4 (antibody, V domains shown)
VH: B1 VH with A40T, G42D
VL: B1 VL with T85D
notes: Human IgG; also called 5E20H7L4; hu5E20H7L4
B9: humanized 5E20 hu5E20VHv1/hu5E20VLv1 (antibody, V domains shown)
VH: B1 VH with V5L, R44G, S78T
VL: B1 VL with V11L, Q100G, K106I
notes: Human IgG (detected or captured with anti-human IgG; huIgG1 control); also called 5E20H1L1
B10: humanized 5E20 hu5E20VHv1/hu5E20VLv3 (antibody, V domains shown)
VH: B1 VH with V5L, R44G, S78T
VL: B1 VL
notes: Human IgG; also called 5E20H1L3
B11: humanized 5E20 hu5E20VHv7/hu5E20VLv3 (antibody, V domains shown)
VH: B1 VH with A40T, G42D
VL: B1 VL
notes: Human IgG; also called 5E20H7L3
B12: humanized 5E20 hu5E20VHv2/hu5E20VLv2 (antibody, V domains shown)
VH: B1 VH with R44G
VL: B1 VL with K106I
notes: Human IgG; also called 5E20H2L2
B13: humanized 5E20 hu5E20VHv1/hu5E20VLv2 (antibody, V domains shown)
VH: B1 VH with V5L, R44G, S78T
VL: B1 VL with K106I
notes: Human IgG; also called 5E20H1L2
B14: humanized 5E20 hu5E20VHv5/hu5E20VLv3 (antibody, V domains shown)
VH: B1 VH with G42D, R87K
VL: B1 VL
notes: Human IgG; also called 5E20H5L3
B15: humanized 11M14 hu11M14VHv1b/hu11M14VLv2b (antibody, V domains shown)
VH: EVQLVESGGGLVQPGGSLRLSCAASGFTFNIYGMSWVRQAPGKGLEWVATISSGGIYTYYPDILKGRFTISRDNAKNSLYLQMNSLRAEDTAVYYCARHPGGAMDYWGQGTLVTVSS
VL: DIQMTQSPSSLSASVGDRVTITCRVSENIYSNLAWYQQKPGKSPKLLVYAATNLADGVPSRFSGSGSGTDYTLTISSLQPEDFATYYCQHFWGTPPWTFGQGTKLEIK
notes: Human IgG; also called 11M14H1bL2b
B16: humanized 11M14 hu11M14VHv3b/hu11M14VLv3b (antibody, V domains shown)
VH: B15 VH with L81G
VL: B15 VL with L54G
notes: Human IgG; also called 11M14H3bL3b
B17: humanized 11M14 hu11M14VHv3b/hu11M14VLv2b (antibody, V domains shown)
VH: B15 VH with L81G
VL: B15 VL
notes: Human IgG; also called 11M14H3bL2b
B18: humanized 11M14 hu11M14VHv2b/hu11M14VLv2b (antibody, V domains shown)
VH: B15 VH with L86G
VL: B15 VL
notes: Human IgG; also called 11M14H2bL2b
B19: humanized 11M14 hu11M14VHv3b/hu11M14VLv4b (antibody, V domains shown)
VH: B15 VH with L81G
VL: B15 VL with L54I
notes: Human IgG; also called 11M14H3bL4b
B20: humanized 11M14 hu11M14VHv2b/hu11M14VLv3b (antibody, V domains shown)
VH: B15 VH with L86G
VL: B15 VL with L54G
notes: Human IgG; also called 11M14H2bL3b
B21: humanized 11M14 hu11M14VHv2b/hu11M14VLv4b (antibody, V domains shown)
VH: B15 VH with L86G
VL: B15 VL with L54I
notes: Human IgG; also called 11M14H2bL4b
B22: humanized 11M14 hu11M14VHv1b/hu11M14VLv4b (antibody, V domains shown)
VH: B15 VH
VL: B15 VL with L54I
notes: Human IgG; also called 11M14H1bL4b
B23: humanized 11M14 hu11M14VHv1b/hu11M14VLv3b (antibody, V domains shown)
VH: B15 VH
VL: B15 VL with L54G
notes: Human IgG; also called 11M14H1bL3b; hu11M14H1bL3b
B24: chimeric 11M14 (antibody, human IgG1, kappa, L234A L235A, V domains shown)
VH: EVQLVESGGDLVKPGGSLKLSCAASGFTFNIYGMSWVRQTPDKRLEWVATISSGGIYTYYPDILKGRFTISRDNAKNTLYLQMSSLKSEDTAMYYCARHPGGAMDYWGQGTSVTVSS
VL: DIQMTQSPASLSVSVGETVTITCRVSENIYSNLAWYQQKQGKSPHLLVYAATNLADGVPSRFSGSGSGTQYSLKINSLQSEDFGSYYCQHFWGTPPWTFGGGTKLEIKR

Experiments:
[1] = molecular target: T1, extracellular domain (ECD) of …; assay: ELISA, ECD-huSortilin-HIS coated at 1 ug/mL, goat anti-human IgG-HRP, chemiluminescence
Procedure: 384-well ELISA plates were coated with 1 ug/mL recombinant ECD-huSortilin-HIS (20 uL/well) and incubated overnight at 4° C. all plates were blocked with 3% BSA in PBS for 1 hour at room temperature. Plates were then washed with Tris buffered saline containing 0.1% Tween20 (TBST) three times. 20 uL of humanized anti-Sortilin mAbs diluted 3-fold from 20 ug/mL to 0.3 ng/mL in 1% BSA in TBST were added to the wells, incubated for 1 hour at room temperature and then washed as above. Goat anti-human IgG specific-HRP (Jackson Immunoresearch) diluted 1:7000 in 1% BSA in TBST was then added at 20 uL per well to react with the bound antibodies and plates were incubated for 1 hour before being washed as above. Super signal Pico chemiluminescent ELISA substrate (ThermoFisher) was used for detection. 20 uL of substrate was added to each well and Relative Light Units (RLU) were measured immediately using the SpectraMax Paradigm (Molecular Devices). Data was analyzed and EC₅₀ was calculated using graphed Prism.

[2] = molecular target: T1, extracellular domain (ECD) of …; assay: SPR (Biacore T200), mAb captured by anti-human antibody on CM5, Sortilin 0.1-300 nM as analyte, global 1:1 fit
Procedure: Analysis was performed using a Biacore T200 to compare the binding affinity of chimeric and humanized antibodies to recombinant human Sortilin. Anti-Human antibody was immobilized on sensor chip CM5 (GE Healthcare Life Sciences) via amine coupling, and humanized antibodies (ligand) were captured to a level to ensure a maximum binding of analyte of 50 RU (approximately 100 RU of ligand binding). Various concentrations of Sortilin (ranging from 0.1 nM to 300 nM) were passed over the captured ligand at 50 μL/min in running buffer (HBS+0.05% P-20, 1 mg/mL BSA) for 300s association time and 1200s dissociation time. Regeneration of the chip surface was accomplished by 2 short injections of 3M MgCl. Data was blank subtracted to both a sensor not containing ligand and 0 nM analyte concentration. Analysis was performed using a global 1:1 fit with Biacore Insight Evaluation software (v2.0) with bulk refractive index set to zero RU.

Binder | EC50 [1] [µg/mL] | Kd [2] [nM] | koff [2] [s⁻¹] | kon [2] [M⁻¹ s⁻¹]
B1 | 0.09 | 15.3 | 0.0028 | 183000
B2 | 0.05 | 5.46 | 0.00115 | 211000
B3 | 0.04 | 5.57 | 0.00117 | 209000
B4 | 0.12 |  |  | 
B5 | 0.07 | 6.36 | 0.00145 | 228000
B6 | 0.1 |  |  | 
B7 | 0.07 | 14.8 | 0.00257 | 174000
B8 | 0.04 | 5.02 | 0.0011 | 218000
B9 | 0.12 |  |  | 
B10 | 0.09 |  |  | 
B11 | 0.06 | 4.18 | 0.00108 | 259000
B12 | 0.08 |  |  | 
B13 | 0.12 |  |  | 
B14 | 0.07 | 6.01 | 0.0014 | 233000
B15 | 0.08 | 5.37 | 0.00193 | 360000
B16 | 0.23 | 9.17 | 0.00343 | 374000
B17 | 0.19 | 7.07 | 0.00225 | 319000
B18 | 0.07 | 2.86 | 0.0012 | 421000
B19 | 0.1 | 7.91 | 0.00344 | 435000
B20 | 0.13 | 2.99 | 0.00119 | 398000
B21 | 0.1 | 2.84 | 0.00117 | 413000
B22 | 0.08 | 5.32 | 0.0019 | 357000
B23 | 0.07 | 5.3 | 0.002 | 377000
B24 | 0.06 | 2.52 |  | 

— patent publication US20230235048A1 (PROTHENA BIOSCIENCES, published 2023)
